Results published in patent US20230032087A1.

Molecular target: CD19 on KILR Raji cells (UniProt P15391)
Assay: cell-based or functional assay

Sequence of CD19 on KILR Raji cells (P15391 20-556 limits assumed): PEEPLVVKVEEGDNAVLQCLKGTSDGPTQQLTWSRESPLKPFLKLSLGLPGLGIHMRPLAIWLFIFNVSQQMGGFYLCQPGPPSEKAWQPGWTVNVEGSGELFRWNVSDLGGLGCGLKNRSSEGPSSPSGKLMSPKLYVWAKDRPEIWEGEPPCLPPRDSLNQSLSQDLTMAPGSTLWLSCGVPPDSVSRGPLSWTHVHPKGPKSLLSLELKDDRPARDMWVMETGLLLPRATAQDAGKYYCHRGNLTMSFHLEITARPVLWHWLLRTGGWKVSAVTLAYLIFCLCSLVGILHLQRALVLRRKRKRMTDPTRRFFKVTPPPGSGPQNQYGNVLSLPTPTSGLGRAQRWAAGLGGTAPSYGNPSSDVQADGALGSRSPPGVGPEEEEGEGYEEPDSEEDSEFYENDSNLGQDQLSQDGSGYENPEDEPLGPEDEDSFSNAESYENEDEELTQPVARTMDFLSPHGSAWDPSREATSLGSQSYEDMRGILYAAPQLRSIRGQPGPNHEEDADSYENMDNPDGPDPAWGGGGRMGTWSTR

blinatumomab (bispecific antibody) was tested, and the EC50 of T cell-redirected killing of KILR Raji cells, +HSA (15 mg/mL) was 10.8 ng/mL and the EC50 of T cell-redirected killing of KILR Raji cells, -HSA was 2.85 ng/mL.
